Data from patent US20240360228A1 (BIOLEGEND, published 2024).
Changes are numbered by the printed parent chain. Values belong to the binder of their own block, whether it stands above or below them.

How the values were obtained:
human CCR8 [1] = target: T1, human CCR8 (human, UniProt P51685 1-355); test: flow blocking, PBMC CCR8+CD4+; competitor PE-AB13
T1 construct: Native CCR8 on human PBMC (CCR8+ CD3+ or CCR8+ CD4+ lymphocytes); also called chemokine (C-C motif) receptor 8
Protocol: (§1) For blocking studies, 100 μL of the cell suspension were incubated with 10 μg purified isotype control, AB1, AB2, AB3, AB4, AB5, AB8, AB9, AB10, AB11, AB12, AB13, AB14, AB15, and Commercial ABI antibodies, or isotype control, as blocking agents.
(§2) After incubation with the blocking agent, the cells were incubated with 0.25 μg of the indicated PE-conjugated antibody plus anti-human CD4 APC or anti-human CD3 for another 15 minutes in the dark and then washed 2 times with Cell Staining Buffer, and acquired in a FACSCanto II flow cytometer (BD Biosciences); the data was analyzed using FCS Express (De Novo Software); MFI correspond to the CCR8+ CD4+ lymphocytes or CCR8+ CD3+ lymphocytes.

human CCR8 [2] = target: T1, human CCR8; test: flow blocking, PBMC CCR8+CD3+; competitor PE-433H
Protocol: as §1, §2
(§3) Percentage original MFI was calculated by dividing the MFI of samples blocked with AB1, AB2, AB3, AB4, AB5, AB6, AB7, AB8, AB9, AB10, AB11, AB12, AB13, AB14, AB15, and Commercial ABI antibodies, by the MFI of samples blocked with the corresponding isotype control. This value was subtracted from 100 to get a blocking percentage. The formula is shown below: […]

human CCR8 [3] = target: T1, human CCR8; test: flow blocking, PBMC CCR8+CD3+; competitor PE-AB6
Protocol: as §1, §2, §3

human CCR8 [4] = target: T1, human CCR8; test: flow blocking, PBMC CCR8+CD4+; competitor PE-AB12
Protocol: as §1, §2, §3

human CCR8 [5] = target: T1, human CCR8; test: flow blocking, PBMC CCR8+CD3+; competitor PE-AB10
Protocol: as §1, §2, §3

human CCR8 [6] = target: T1, human CCR8; test: flow blocking, PBMC CCR8+CD3+; competitor PE-AB8
Protocol: as §1, §2, §3

human CCR8 [7] = target: T1, human CCR8; test: flow blocking, PBMC CCR8+CD4+; competitor PE-AB14
Protocol: as §1, §2

human CCR8 [8] = target: T1, human CCR8; test: flow blocking, PBMC CCR8+CD3+; competitor PE-L263G8
Protocol: as §1, §2, §3

human CCR8 [9] = target: T1, human CCR8; test: flow blocking, PBMC CCR8+CD4+; competitor PE-AB10
Protocol: as §1, §2, §3

human CCR8 [10] = target: T1, human CCR8; test: flow blocking, PBMC CCR8+CD4+; competitor PE-433H
Protocol: as §1, §2

human CCR8 [11] = target: T1, human CCR8; test: flow blocking, PBMC CCR8+CD4+; competitor PE-AB3
Protocol: as §1, §2, §3

human CCR8 [12] = target: T1, human CCR8; test: flow blocking, PBMC CCR8+CD4+; competitor PE-AB5
Protocol: as §1, §2, §3

human CCR8 [13] = target: T1, human CCR8; test: flow blocking, PBMC CCR8+CD4+; competitor PE-AB2
Protocol: as §1, §2, §3

human CCR8 [14] = target: T1, human CCR8; test: flow blocking, PBMC CCR8+CD4+; competitor PE-AB11
Protocol: as §1, §2, §3

human CCR8 [15] = target: T1, human CCR8; test: flow blocking, PBMC CCR8+CD3+; competitor PE-AB13
Protocol: as §1, §2, §3

human CCR8 [16] = target: T1, human CCR8; test: flow blocking, PBMC CCR8+CD4+; competitor PE-AB6
Protocol: as §1, §2

human CCR8 [17] = target: T1, human CCR8; test: flow blocking, PBMC CCR8+CD4+; competitor PE-AB4
Protocol: as §1, §2, §3

human CCR8 [18] = target: T1, human CCR8; test: flow blocking, PBMC CCR8+CD3+; competitor PE-AB11
Protocol: as §1, §2, §3

human CCR8 [19] = target: T1, human CCR8; test: flow blocking, PBMC CCR8+CD4+; competitor PE-AB15
Protocol: as §1, §2, §3

human CCR8 [20] = target: T1, human CCR8; test: flow blocking, PBMC CCR8+CD3+; competitor PE-AB14
Protocol: as §1, §2, §3

human CCR8 [21] = target: T1, human CCR8; test: flow blocking, PBMC CCR8+CD3+; competitor PE-AB15
Protocol: as §1, §2, §3

human CCR8 [22] = target: T1, human CCR8; test: flow blocking, PBMC CCR8+CD3+; competitor PE-AB12
Protocol: as §1, §2, §3

human CCR8 [23] = target: T1, human CCR8; test: flow blocking, PBMC CCR8+CD4+; competitor PE-AB1
Protocol: as §1, §2, §3

human CCR8 [24] = target: T1, human CCR8; test: flow blocking, PBMC CCR8+CD3+; competitor PE-AB7
Protocol: as §1, §2, §3

human CCR8 [25] = target: T1, human CCR8; test: flow blocking, PBMC CCR8+CD3+; competitor PE-AB5
Protocol: as §1, §2, §3

T1 sequence (P51685 whole entry): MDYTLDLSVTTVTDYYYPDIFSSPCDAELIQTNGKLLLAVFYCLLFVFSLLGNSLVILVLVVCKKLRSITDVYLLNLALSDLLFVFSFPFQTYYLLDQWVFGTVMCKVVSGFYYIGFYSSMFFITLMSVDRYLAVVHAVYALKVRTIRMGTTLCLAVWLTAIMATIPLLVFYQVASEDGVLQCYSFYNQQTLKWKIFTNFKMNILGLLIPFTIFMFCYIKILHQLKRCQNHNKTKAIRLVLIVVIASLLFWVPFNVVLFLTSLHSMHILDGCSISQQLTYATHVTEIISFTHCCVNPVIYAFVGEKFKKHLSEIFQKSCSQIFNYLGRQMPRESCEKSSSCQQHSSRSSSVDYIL

% Blocking (human CCR8 [1]): 93.4%
% Positive cells (human CCR8 [1]): 0.13%
% Blocking (human CCR8 [2]): 53%
MFI (human CCR8 [2]): 417
% Blocking (human CCR8 [3]): -17.3%
MFI (human CCR8 [3]): 1080
% Blocking (human CCR8 [4]): 98.9%
% Positive cells (human CCR8 [4]): 0.02%
% Blocking (human CCR8 [5]): 23.7%
MFI (human CCR8 [5]): 608
% Blocking (human CCR8 [6]): 26.9%
MFI (human CCR8 [6]): 870
% Blocking (human CCR8 [7]): 96.9%
% Positive cells (human CCR8 [7]): 0.04%
% Blocking (human CCR8 [8]): 13.1%
MFI (human CCR8 [8]): 585
% Blocking (human CCR8 [9]): 91.2%
% Positive cells (human CCR8 [9]): 0.13%
% Blocking (human CCR8 [10]): 92.6%
% Positive cells (human CCR8 [10]): 0.13%
% Blocking (human CCR8 [11]): -27.5%
% Positive cells (human CCR8 [11]): 2.18%
% Blocking (human CCR8 [12]): -8.42%
% Positive cells (human CCR8 [12]): 2.19%
% Blocking (human CCR8 [13]): -38.4%
% Positive cells (human CCR8 [13]): 2.27%
% Blocking (human CCR8 [14]): 98.5%
% Positive cells (human CCR8 [14]): 0.03%
% Blocking (human CCR8 [15]): -50.2%
MFI (human CCR8 [15]): 1330
% Blocking (human CCR8 [16]): -14.4%
% Positive cells (human CCR8 [16]): 2.31%
% Blocking (human CCR8 [17]): -19.7%
% Positive cells (human CCR8 [17]): 2.13%
% Blocking (human CCR8 [18]): 45.9%
MFI (human CCR8 [18]): 502
% Blocking (human CCR8 [19]): 98.5%
% Positive cells (human CCR8 [19]): 0.02%
% Blocking (human CCR8 [20]): 46.4%
MFI (human CCR8 [20]): 463
% Blocking (human CCR8 [21]): 45.2%
MFI (human CCR8 [21]): 471
% Blocking (human CCR8 [22]): 48.4%
MFI (human CCR8 [22]): 527
% Blocking (human CCR8 [23]): -41.9%
% Positive cells (human CCR8 [23]): 2.2%
% Blocking (human CCR8 [24]): 26.1%
MFI (human CCR8 [24]): 863
% Blocking (human CCR8 [25]): -11.8%
MFI (human CCR8 [25]): 1100
B1: AB8 (antibody, V domains shown)
VH: AVQLVESGGGLVQPKESLKISCAASGFIFSNAAMYWVRQAPGKGLQWVARIRTKPKNYATYYIDSVKGRFTISRDDSKSMVYLQMDNLKTEDTAMYYCNTMGLTRAYYFDYWGQGVMVTVSS
VL: DIQMTQSPSFLSASVGDRVTINCKASQNINRYLNWYQQKLGEAPKLLIYNANSLQTGIPSRFSGSGSGTDFTLTIRSLQPEDVATYFCLQHNSWPWTFGGGTKLELK
notes: Hybridoma monoclonal; also called antibody 8; clone 8

% Blocking (human CCR8 [2]): 45.2%
MFI (human CCR8 [2]): 486
% Blocking (human CCR8 [3]): -23.2%
MFI (human CCR8 [3]): 1140
% Blocking (human CCR8 [5]): 12.2%
MFI (human CCR8 [5]): 700
% Blocking (human CCR8 [6]): 26.6%
MFI (human CCR8 [6]): 873
% Blocking (human CCR8 [8]): 0.82%
MFI (human CCR8 [8]): 668
% Blocking (human CCR8 [15]): -0.34%
MFI (human CCR8 [15]): 888
% Blocking (human CCR8 [18]): 53.2%
MFI (human CCR8 [18]): 434
% Blocking (human CCR8 [20]): 28.5%
MFI (human CCR8 [20]): 618
% Blocking (human CCR8 [21]): 23.2%
MFI (human CCR8 [21]): 660
% Blocking (human CCR8 [22]): 49.1%
MFI (human CCR8 [22]): 520
% Blocking (human CCR8 [24]): 47.3%
MFI (human CCR8 [24]): 616
% Blocking (human CCR8 [25]): -6.64%
MFI (human CCR8 [25]): 1050
B2: AB7 (antibody, V domains shown)
VH: B1 VH with I28T, N31Y, A40T, Q46E, K56N, I63A, T90S, T100I, L103I, A106G
VL: B1 VL with K39Q, S53N, G66R, R76S
notes: Hybridoma monoclonal; also called antibody 7; clone 7
